# Measured values reported in the supplement of paper PMC9170038.
# Test system: MS2 coat protein
# Assay: apparent KD of MS2 coat protein; designed switch direction (-1 OFF switch, 1 ON switch): -1; higher = weaker reporter binding
# Procedure, shortened: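 Designed RNA switches with common flanks were made on Illumina chips by stalled E. coli RNA polymerase. Titration with SNAP-549-labelled MS2 coat protein doubled from 0.7 or 1.5 nM up to 3 µM. Apparent KD is each design's median over clusters after curve-fitting normalised fluorescence.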
# [1] = input ligand: microRNA oligo, concentration not stated
# [2] = Eterna round: R95, input ligand: FMN 200 uM
# [3] = Eterna round: R95, input ligand: microRNA oligo, concentration not stated
# [4] = Eterna round: R95, input ligand: none
Sequence,apparent KD of MS2 coat protein (input ligand: FMN 200 uM),apparent KD of MS2 coat protein [1],apparent KD of MS2 coat protein (input ligand: none),apparent KD of MS2 coat protein [2],apparent KD of MS2 coat protein [3],apparent KD of MS2 coat protein [4]
"GCGCCAUCGUGAGAUGGCGUUUCGACAUGAGGAUCACCCAUGUAGGAUAUCGAUUGCUUUGCAGUCGAGAAGGGCGUGAUAAGU [JL ENG3 3.72] (Eterna round: R96, puzzle: Exclusion NG 3)",104 nM,74.4 nM,98.2 nM,,,
"AUUGUUUAUGUAGGAUAUGCCUGGCGUGCCUUUGCAGAAGGACAUGAGGAUCACCCAUGUAACAUGAGGCUCACCCAUGUCGCC [salish99_ExNG1_r04_114] (Eterna round: R96, puzzle: Exclusion NG 1)",162 nM,123 nM,170 nM,,,
"UUAAUUAAUUAAUUAUAAGAUCAACAUGAGGAUCACCCAUGUGAGGAUAUCAGCUCGUUUAGAGCUGAGAAGGCACAAAUAAUU [ExNG3/16-B2] (Eterna round: R96, puzzle: Exclusion NG 3)",208 nM,45.7 nM,49.8 nM,,,
"ACUCUAUAGUAGGAUAUCAUCAAACUAUUGUGAUGAGAAGGACUAACAUGAGGAUCACCCAUGUUAACGUGAAG [Mod of Brourd 5 - Jieux - Exclusion 6] (Eterna round: R97, puzzle: Exclusion 6)",24.3 nM,,21.1 nM,,,
"UUGUUCUGAGGAUAUACAUGAGGAUCACCCAUGUGUUUCUGCUUGGAGACUAGCGAAUGUAGAAGGCUGUUCUC [salish99_ex3_r4_021] (Eterna round: R97, puzzle: Exclusion 3)",15.2 nM,,14.2 nM,,,
"UAUUAGCAAGCGAGAUCCCACAUGAGGAUCACCCAUGUGCUCGUCUUAUAAGGUACUGUGACGAAAGUCACGGUACC [Sensor 3, v1 - 91] (Eterna round: R96, puzzle: Sensor v3, turn-off variant 1)",11.5 nM,298 nM,15.5 nM,,,
"UGGCUGCUCAGGGAGUGUGACAUGAGGAUCACCCAUGUGGUGGUAGGGAACAAGCUUUUUGCACGUACUUAUGAGUC [JR_SV3TOV1_Sub009] (puzzle: Sensor v3, turn-off variant 1)",,,,840 nM,107 nM,388 nM
UCAUACGAUGAGGAUAUCUCCGUUAAAGUAUGUAGAGAAGGCGUUACAUGAGGAUCACCCAUGUUUGUGGGCAG [Ex-6 Malc#9] (puzzle: Exclusion 6),,,,223 nM,217 nM,190 nM
"UUUAUGCUAGGAUAUGCACCCUCGAACAUGAGGAUCACCCAUGUACAAUAAAAGCAUGGAGCAGAAGGAGCUCCCA [EX5 A.24] (Eterna round: R97, puzzle: Exclusion 5)",378 nM,,80.1 nM,,,
"UUAGAAAUGGUAGGAUAUUAGUAGUGUUUUACUCUGAUCCACAUGAGGAUCACCCAUGUGAGUAGUGAGAAGGAUCAUUUUAUG [base off of JR design] (Eterna round: R96, puzzle: Exclusion NG 2)",21.1 nM,17.8 nM,19.3 nM,,,
"UAAAGUAUAUAGGAUAUCUAGCUGGAAACAGCUAGAGAAGGAUGUACAUGAGGAUCACCCAUGUAGAUCUCAAA [Ex6/15-A2] (Eterna round: R97, puzzle: Exclusion 6)",19 nM,,16.2 nM,,,
"GCUUGUCUUUAGGAUAUCGUGAGGCCCUUCAUACGAGAAGGAAAGACAUGAGGAUCACCCAUGUCGGGUAUCAC [Eternabot (L1) Solution 28] (Eterna round: R97, puzzle: Exclusion 6)",51.8 nM,,20.8 nM,,,
AAGGAUAGAGGAUAUACAUAGAUACAGAUUCGUGUAGAACUACAUGAGGAUCACCCAUGUAGAAGGCUAUCCUA [Fiskers Ex 2 - 7] (puzzle: Exclusion 2),,,,,15.2 nM,
"UUACUGCAAGGAUAUACAUGAGGAUCACCCAUGUUAAUGACACGGUGCAGCUUCGACAGUAGAAGGUGCGUGGG [Eternabot (L1) Solution 71] (Eterna round: R97, puzzle: Exclusion 3)",43.2 nM,,34.7 nM,,,
GAGGAACAUGAGGAUCACCCAUGUGAGGAUAUGCAUAGCGAGGUAGUAGAAGUUGAAUGCAGAAGGUACACGGA [JR_Exclu1_Sub076] (puzzle: Exclusion 1),,,,,27.5 nM,
"UCACGGCUCGGAGGAUAUGACACAUGAGGAUCACCCAUGUGUGUAAGCCAAUAAACCUACAAAUGUCAGAAGGCCGCGCCUCAU [Eternabot solution 9] (Eterna round: R96, puzzle: Exclusion NG 2)",,10.8 nM,,,,
CGUGACUCAGGAUAUCUAUGAUAUCACAUGAGGAUCACCCAUGUCCAGCAAUAGCUGGAGGGAGAAGGGAGUCACG [Fiskers Ex 5 - 41] (puzzle: Exclusion 5),,,,84 nM,54.3 nM,166 nM

Sequence,apparent KD of MS2 coat protein (input ligand: FMN 200 uM),apparent KD of MS2 coat protein [1],apparent KD of MS2 coat protein (input ligand: none),apparent KD of MS2 coat protein [2],apparent KD of MS2 coat protein [3],apparent KD of MS2 coat protein [4]
"GAGUUAACAUGAGGAAUAUACAUGAGGAUCACCCAUGUUAACAAAACUUUUGCUCGUCUUAUAACAACAAUUAACUC [Alarm 2 - Jieux - Sensor, turn-off variant 1] (Eterna round: R97, puzzle: Sensor, turn-off variant 1)",347 nM,,133 nM,,,
"UAUUAAACAAGCAGAUCCCACAUGAGGAUCACCCAUGUGCUCGUCUUAUAAGGUACUGUGACGAAAGUCACGGUACC [Sensor 3, v1 - 91 v11] (Eterna round: R97, puzzle: Sensor, turn-off variant 1)",56.7 nM,,62.1 nM,,,
"UUAUAGUUAGAGGAUAUAUUAAGGUAUGCUUUGAUAGAAGGCUAGACAUGAGGAUCACCCAUGUAUAUUGGGAU [JR_Ex6_Sub075] (Eterna round: R97, puzzle: Exclusion 6)",425 nM,,220 nM,,,
"AAUAAACAUGAGGAUCACCCAUGUGAGGAUAUACAGAUUAUAAGAAAAAAAAAAAAAAGUAGAAGGCACAUAUA [Default title] (Eterna round: R96, puzzle: Exclusion 1)",39.6 nM,29.9 nM,37.6 nM,,,
"AAAGAACAUGAGGAUCACCCAUGUUAGGAUAUAGUAGCAGUGUAUCUAAAGACAGCAGCUAGAAGGAGCAUGAG [Eternabot (Original) Solution 46] (Eterna round: R97, puzzle: Exclusion 1)",77.4 nM,,74.3 nM,,,
"AACAGUACAGGAUAUACAUGAGGAUCACCCAUGUGAGAAUUAAGUGGAAAACCACAAAGUAGAAGGGUACUGGA [Mat - Exclusion 3 - JL mod - D3] (Eterna round: R96, puzzle: Exclusion 3)",209 nM,23.3 nM,,,,
"CCAAGCUUUUUCAUUAACAACAUGAGGAUCACCCAUGUGUAAGCUAUUAGGUUUGGGCUCUUUAGUGCUCGUCUUAU [JR_STOV1_Sub041] (Eterna round: R97, puzzle: Sensor, turn-off variant 1)",14.5 nM,,13.5 nM,,,
"CCUCAGUCACAGGAUAUGCUCAUCUAAUGAUGAGCAGAAGGGUGAACAUGAGGAUCACCCAUGUUUACGGUGGU [Omei Ex6 E8] (Eterna round: R97, puzzle: Exclusion 6)",122 nM,,328 nM,,,
"UUUGCAAGCUUAUGAUCCCACAUGAGGAUCACCCAUGUUCCUGGCCGUGAGGCUAGGAUAACAUAUGCUCGUCUUAU [JL TOV1 3.64] (Eterna round: R97, puzzle: Sensor, turn-off variant 1)",703 nM,,814 nM,,,
"UUUUAGUCAGGAUAUACAUGAGGAUCACCCAUGUAAAAUUUUAAUUUAAUUUGAAUGUGUAGAAGGGACAUUUU [Ex3 #41] (Eterna round: R97, puzzle: Exclusion 3)",23.6 nM,,26.4 nM,,,
"GCACGGAGUGUAGGAUAUCUGUGCGAUUAGCUCAGAGAAGGACACAUGAGGAUCACCCAUGUGUUCCACGGAAACGAACCGUGC [Eli exng1 - 052] (Eterna round: R96, puzzle: Exclusion NG 1)",11.8 nM,10.2 nM,13.4 nM,,,
"AUGUUGUCAGGAUAUCGUUAAUUUAGUUGUUUGUAUUAGUUCGAGAAGGGACAUGAGGAUCACCCAUGUUUGAA [Ex4 #35] (Eterna round: R97, puzzle: Exclusion 4)",41.2 nM,,34.8 nM,,,
"AGAUAGUGCUGAGGAUAUCUGAAUAGAAAGAAAAGAGAAGGCGGACAUGAGGAUCACCCAUGUGAGGUCUUGAGACUACAUGGU [Prohibition 37 - Jieux - Exclusion NG 1] (Eterna round: R96, puzzle: Exclusion NG 1)",393 nM,42.9 nM,80.4 nM,,,
"CUGCUCCGUGUAGGAUAUCCGCGCAACCAAUGCGGAGAAGGACAUGAGGAUCACCCAUGUAUGUUAUUAUCACGUGAAGCGUCC [Design 26] (Eterna round: R96, puzzle: Exclusion NG 1)",24.8 nM,13.7 nM,24.8 nM,,,
AGCAUGGUAGGAUAUACGGAACAUUAGGGUUUGUUGUGUGGACAUGAGGAUCACCCAUGUAGAAGGGCCGUGCA [Mat - Exclusion 2 - Mod of JL - D81] (puzzle: Exclusion 2),,,,,33.7 nM,
"CCGACCCGAGGAUAUUGUACUGCUGACAUGAGGAUCACCCAUGUAUGUUAACUCGGCCGACGAGAAGGCGGCGACA [BotMod 3 - Jieux - Exclusion 5] (Eterna round: R97, puzzle: Exclusion 5)",18.4 nM,,22.1 nM,,,
